Laboratory results published in PMC8927147, “Global profiling of regulatory elements in the histone benzoylation pathway” (Nature Communications, 2022).

T1: H3K14bz peptide
T1 chain: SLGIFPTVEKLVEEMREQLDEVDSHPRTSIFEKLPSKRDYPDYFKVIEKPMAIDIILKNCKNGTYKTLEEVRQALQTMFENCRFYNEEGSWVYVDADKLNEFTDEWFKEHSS

T2: H3K27bz peptide
T2 chain: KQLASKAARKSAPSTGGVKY


Legend:
[1] = molecular target: T1, H3K14bz peptide; assay: ITC; settings: chain shown with the change
[2] = molecular target: T2, H3K27bz peptide; assay: ITC; settings: chain shown with the change

| Binder | Kd [1] | Kd [2] |
| --- | --- | --- |
| TARKSTGGKAPRKQLASY [Sth1BD, P32597 A1329C] | 187 µM | – |
| Sas5_(YEATS), Q99314 K64P (protein) DHSIEVTFRVKTQQVIIPEQNIRGNELPLRRWQMELLMLDATGKEVEPTILSKCIYHLHSSFPQPKRRLNSLPFFIKETGWGEFNLKIECFFIGNAGKFSIEHDLTFEDDAYAVDYTVDVPHEFSHLNSELSKYFDLP | – | 31.1 µM |
| Sas5_(YEATS), Q99314 L30H (protein) DHSIEVTFRVKTQQVIIPEQNIRGNELPHRRWQMELLMLDATGKEVEPTILSKCIYHLHSSFKQPKRRLNSLPFFIKETGWGEFNLKIECFFIGNAGKFSIEHDLTFEDDAYAVDYTVDVPHEFSHLNSELSKYFDLP | – | 369 µM |
